The RNAGym collection of RNA variant scans (doi:10.7554/elife.80360)

B1: CPEB3 Ribozyme (parent)
chain: GGGGGCCACAGCAGAAGCGUUCACGUCGCGGCCCCUGUCAGAUUCUGGUGAAUCUGCGAAUUCUGCUGU

Variants of: B1
Experiment: self-cleavage, relative activity (ratio to wild type); higher = more cleavage; co-transcriptional

Variant | self-cleavage
C35G C66U | 0.474
C35G C66A | 0.308
U36A A51C | 0.242
U36A A51U | 0.306
C35G A60C | 0.348
C35G A60G | 0.239
C35G A60U | 0.217
U36C G58U | 0.963
U36A U53G | 0.286
U36A U53A | 0.282
U36A G50A | 0.213
U36A G50C | 0.249
C35A G65U | 0.184
C35A G65A | 0.299
U36A U46A | 0.164
U36A U46G | 0.255
C34U U53C | 0.943
C34U U53G | 0.728
U36A U69A | 0.377
U36A U69C | 0.558
C35A U44C | 0.277
C35U U53A | 0.833
C35U C63A | 0.77
C35U C63U | 0.954

Variant | self-cleavage
C35U C63G | 0.588
U36A A59G | 0.263
U36A A59C | 0.157
U36A C63G | 0.213
U36A C63U | 0.185
C35U U64C | 0.836
C35U U64A | 0.83
C35A G37C | 0.254
C35A G37A | 0.221
C35A G37U | 0.237
C35A U62G | 0.21
C35A U62A | 0.306
C35A U62C | 0.242
U36A G56C | 0.201
U36A G56U | 0.177
C35A C39U | 0.183
C35A C39G | 0.3
C35A G47U | 0.259
C35A G47C | 0.189
C35A G47A | 0.292
C35G C54G | 0.348
U36A A40G | 0.248
U36A A40C | 0.223
C35G G65U | 0.223

Variant | self-cleavage
C35U U62A | 0.813
C35U U62G | 0.804
U36A A52U | 0.166
U36A A52G | 0.178
C35A A42G | 0.281
C35A A42C | 0.229
C35A A42U | 0.19
U36C G41A | 0.507
U36C G41C | 0.552
U36C G41U | 0.664
C35U A52U | 0.973
C35U A52G | 0.974
C35A G58U | 0.286
U36A U49A | 0.263
U36A U49G | 0.225
U36C C63A | 0.587
U36C C63G | 0.548
U36A U67G | 0.181
U36A U67A | 0.246
U36A U67C | 0.215
U36C C54G | 0.765
U36C C54U | 0.973
U36C C54A | 0.736
C35U A42U | 0.907

Variant | self-cleavage
C35U A42G | 0.943
C35U A42C | 0.81
C35A G41U | 0.277
C35A G41A | 0.264
U36C G68A | 0.932
U36A U55A | 0.209
U36A U55C | 0.181
U36A U55G | 0.289
U36A C66A | 0.294
U36A C66U | 0.187
C34U U55A | 0.925
C34U U55G | 0.84
C34U U61A | 0.952
C34U U61G | 0.711
U36C G48A | 0.94
U36C G48U | 0.981
U36C G48C | 0.948
U36A C54U | 0.35
C35G G56C | 0.331
C35G G56A | 0.297
C35G G56U | 0.307
C35G U43A | 0.335
C35G U43G | 0.31
C35G U43C | 0.372

Variant | self-cleavage
C35U A51U | 0.904
C35U A51C | 0.958
C35U A51G | 0.904
U36A U61C | 0.171
C35U U38A | 0.901
C35U U38C | 0.876
C35U U38G | 0.184
C35U U49G | 0.909
C35U U49C | 0.956
C35U C45G | 0.956
C35U A40G | 0.914
C35A U43G | 0.227
C35A U43A | 0.185
C35A U43C | 0.264
U36A G65C | 0.31
U36A G65U | 0.203
C35G A59U | 0.254
U36C A59U | 0.448
U36C A59G | 0.962
U36C A59C | 0.42
C35A C57U | 0.191
C35A U67C | 0.324
C35U G58U | 0.984
C35U G58C | 0.878

Variant | self-cleavage
C35U G58A | 0.878
C35U C57A | 0.323
C35A A52G | 0.247
C35A A52C | 0.316
U36A A42U | 0.242
U36A A42C | 0.191
C35U G47U | 1.01
C35U G47C | 0.967
C35U G47A | 0.918
C35A G68C | 0.345
C35A G68U | 0.394
U36A G58U | 0.253
U36A G58C | 0.226
C35U G68C | 0.963
C35U G68U | 1.01
C35G A52U | 0.474
C35G A52C | 0.433
U36A U44C | 0.295
U36C A60G | 0.636
U36C A60U | 0.376
U36C A60C | 0.268
C35U G56U | 0.859
C35U G56C | 0.651
C35U G56A | 0.819

Variant | self-cleavage
C34U U46C | 0.977
C34U U46G | 0.988
C35G U53G | 0.214
C35G U53C | 0.342
C34U U64C | 0.971
C34U U64G | 0.928
C35U U43A | 0.818
C35U U43C | 0.866
C35G G37C | 0.206
C35G G37A | 0.219
C35G G37U | 0.257
C34U U69C | 1.07
C34U U69G | 1.04
C34U U69A | 1.01
C35U G50A | 0.974
C35U G50C | 0.979
C35U U36G | 0.237
C35U U36C | 0.941
C35U U36A | 0.212
C35G U61A | 0.33
U36C C39G | 0.847
U36A G48C | 0.291
U36A G48U | 0.311
C35G U67A | 0.638

Variant | self-cleavage
C35G U67G | 0.574
U36A U38C | 0.216
U36A U38G | 0.185
U36A U38A | 0.25
C35G G50A | 0.36
C35G G50U | 0.443
C35G G58C | 0.295
C35G G58U | 0.375
C35G C45U | 0.483
C35G C45A | 0.475
C35G C45G | 0.452
C34U U67G | 0.982
U36C C57G | 0.3
U36C C57A | 0.251
U36A U62G | 0.249
U36A U62A | 0.218
C35U U67G | 1.03
C35U U67C | 0.979
C35A G50U | 0.287
C35A U38C | 0.256
C35A U38A | 0.279
C35A A51C | 0.255
C35A A51G | 0.234
C35A C66U | 0.259

Variant | self-cleavage
C35A C66A | 0.22
C35A C66G | 0.294
C35A U55A | 0.244
C35A U55G | 0.196
C35A U55C | 0.357
C35U U44C | 0.919
C35U U44A | 0.889
C34U U49G | 0.985
C34U U49C | 0.998
C34U U49A | 0.996
U36A G41C | 0.22
U36A G41U | 0.251
U36C G56C | 0.46
U36C G56A | 0.814
U36C G56U | 0.696
C35U C39A | 0.782
C35U C39G | 0.878
U36C G37C | 0.237
U36C G37U | 0.287
C35G U69C | 0.77
C35G U69G | 0.545
C35G U69A | 0.543
C35G G41U | 0.341
U36A A60G | 0.269

Variant | self-cleavage
U36A A60C | 0.19
U36A A60U | 0.242
C35A U46G | 0.356
C35A U46A | 0.268
C35A G56C | 0.253
C35A G56U | 0.223
C35A G56A | 0.218
C34U U62A | 0.921
C34U U62G | 0.892
U36A U64A | 0.232
U36A U64G | 0.202
U36A U43G | 0.214
U36A U43A | 0.249
C35G A40U | 0.261
C35G A40C | 0.225
C35G A40G | 0.394
U36C G47A | 0.953
U36C G47C | 0.993
U36C G47U | 0.892
C35U U61A | 0.596
C35U U61G | 0.854
C35G C57A | 0.243
C35G C57G | 0.212
C35U U69C | 1.08

Variant | self-cleavage
C35U U69G | 1.01
C35U U55G | 0.653
C35U U55C | 0.699
C35U G48A | 1.01
C35U G48C | 0.964
C35U G48U | 0.987
C35G U46C | 0.378
C35U G37A | 0.253
U36A C57A | 0.213
U36A C57U | 0.233
U36A C57G | 0.231
C35U A59U | 0.564
C35U A59G | 0.999
C35U A59C | 0.41
C35G U49C | 0.513
C35A A60C | 0.193
C35A A60G | 0.24
C35A A59U | 0.227
C35A A59C | 0.204
C35A A59G | 0.34
U36C C66G | 0.621
U36C C66A | 0.603
C35G C39A | 0.362
C35A U36G | 0.232

Variant | self-cleavage
C35A U36C | 0.245
U36A C45G | 0.282
U36A C45A | 0.158
C35G C63A | 0.341
C35G U64G | 0.304
C35G U64C | 0.274
U36C A52C | 0.997
U36C A52U | 0.915
U36A C39A | 0.233
C35A C63A | 0.276
U36C C45A | 0.865
U36C C45G | 0.866
C35G U38G | 0.178
C35G U38A | 0.417
C35A U53A | 0.266
C35A U53C | 0.225
C35A U53G | 0.24
C35U C54A | 0.744
C35A C54A | 0.315
C35A C54U | 0.252
C35G G68A | 0.741
C35G G68C | 0.77
C35A U69A | 0.358
C35A U69C | 0.417

Variant | self-cleavage
C35A U61G | 0.288
C35A U61A | 0.231
C35A G48U | 0.249
C35G G48U | 0.491
C35G G48A | 0.452
U36C A40U | 0.64
U36C A40C | 0.506
U36C A40G | 0.858
C35G U62G | 0.308
C35G U62A | 0.313
C35U G65A | 0.847
C35U G65U | 0.632
C35U U46G | 0.967
C35U U46C | 0.976
C35U U46A | 0.907
U36C A42U | 0.869
U36C A42G | 0.77
U36C A42C | 0.732
C35U C66A | 0.828
U36C A51U | 0.879
U36C A51C | 0.88
C35U G41C | 0.632
C35U G41U | 0.745
C35G A42G | 0.503

Variant | self-cleavage
C35G A42U | 0.308
C35G A51U | 0.445
C35G A51G | 0.461
C35G A51C | 0.426
C35G G47U | 0.553
C35G G47C | 0.634
U36C G65C | 0.414
U36C G65A | 0.67
C35A U49G | 0.26
C35A U49C | 0.342
C35A U49A | 0.303
C35G U44C | 0.357
C35G U44A | 0.346
U36A G68A | 0.317
U36A G68C | 0.227
U36C G50C | 0.895
U36A G47U | 0.321
U36A G47A | 0.295
U36A G47C | 0.269
C35A U64C | 0.276
C35A U64A | 0.205
C35A U64G | 0.318
